Here are results for one molecule from PMC5415421.

In the test the target is WDR74 isoform II, C-terminal GFP (human). The test is described as follows: co-IP.

B1: Full-length mouse NVL2 (1–855), N-terminal One-Strep-Flag tag (enzyme)
chain: MKPRPGVFVDRKLKQRVIQYLSSNRCGKYVDTGILASDLQRLYSVDYGRRKRNAFRIQVEKVFSIISSEKELKNLKELEDGHLAKRARQDEEDEYTESYSDDDSNMEDYPDPQSANPMNSSLLSLYRRGNSESVSTTPKWGQREATTSTPLLTSKTGSVPLKTPARESEGGWFIDKTPGGKKESLPLDLSDDQSNSKKQDSEIQILKDSSLLESDKKRKGRAKGKGNKRKTENLQEVDGEIEALLQKKAKARSTELQISNVKFEDVGGNDATLKEVCKMLIHMRHPEVYQHLGVVPPRGVLLHGPPGCGKTLLAHAIAGELDLPILKVAAPEIVSGVSGESEQKLRELFDQAVSNAPCIVFIDEIDAITPKREVASKDMERRIVAQLLTCMDDLNNVAATARVLVIGATNRPDSLDPALRRAGRFDREVCLGIPDEAARERILQTLCRKLRLPETFNFCHLAHLTPGFVGADLMALCREAAMCAVNRVLMKQQAQQKKKPEIEGLPSEGDQEERLGAEPTSETQDELQRLLGLLRDQDPLSEEQMQGLCIELNDFIVALAEVQPSAKREGFVTVPNVTWADIGALEDIRDELIMAILAPVRNPDQFRTLGLGTPAGILLAGPPGCGKTLLAKAVANESGLNFISVKGPELLNMYVGESERAVRQVFQRAKNSAPCVIFFDEVDALCPRRSDRETGASVRVVNQLLTEMDGLETRQQVFILAATNRPDIIDPAILRPGRLDKTLFVGLPPPADRVAILKTITKNGTKPPLDEDVNLETIANDLRCNCYTGADLTALVREASLCALRQEITAQKNGVGAGELKVSHKHFEDAFKKVKPSISIKDQVMYEALQRSLSQ
Consider B1, for which the relative amount of NVL2 bound to the resin was found to be 9.2%.
